Assay: label from the status in PepcDB records
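Further: failed if final PepcDB status was selected cloned or expressed and not failed if soluble or beyond.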

Sequence	protein production
MSLARQVTAFNTGWQFKKGPFATDPMRAASQWDGKWETVEIPHTWNAMDMQVQSGSFYEGAGYYRKTQFFPHDLEGKRVFLRFEGVGACAEVYVNGKLAGTHKGGYSAFACEIGTALKLGAENEIIVKADNKARPDVIPVNQNLFGVYGGIYRPVWLIVTEQNNITVTDCASPGVYITQKDVSKKSADITVKVKLDNAGLQPAAVTLENTIYTQEGQKVGTHSRSFDLSPQGTQTYLSTFKLKNPHLWQGRKDPYLYKVVCRLMADGKVIDEVVQPLGVRKYEIVAGKGFFLNGEKYSMYGVTRHQDWWGLGSALKNEHHDFDLAAIMDVGATTVRFAHYQQSDYLYSRCDTLGLIIWAEIPCVNRVTGYETENAQSQLRELIRQSFNHPSIYVWGLHNEVYQPHEYTAALTRSLHDLAKTEDPDRYTVSVNGYGHMDHPVNLNADIQGMNRYFGWYEKKIQDIKPWVEQLEKDYPYQKLMLTEYGADANLAHQTEYLGDALNWGKPFYPETFQTKTHEYQWSIIKDHPYIIASYLWNMFDFAVPMWTRGGVPARNMKGLITFDRKTKKDSYFWYKANWSEEPVLYLTQRRNADREKRTTAVTVYSNIGTPKVYLNGQELSGIRNGYTDVHYVFDNVSLADGKNILKAVVSTKGKEYTDEIEWNYSGEKNREIDSYENKNEHSGEGHHHHHH	not failed
MSLDCRVRESIQEEAKGIVAPPELKEKVIVQIKMNQGGRKRKKRLIAGVLAAAFLIPTTGFAYQSIMADGIYGSFENLKKHAGTMTLEAYMRFSAKLSEAKDEMGTKEYEVFTKELKKLTNAKLAYGDSNGNIDYDALSSEKREEMKKVSMGLQPYFDKLNGHKSSKEVLTQEEFDRYMEALMTHEIVRVKTKSTGAIKVEEIPEAYKERFIKAEQFMEYVDEKVR	not failed
MSLDLPEGHPLKTLYQENKEIMKDAEMLNLYAKTLATTKDERMREEILGVLEEIVSSLRMVGFTHYNREEMLIFPYIERRGLTVIATVLWTKHDEIRAMIKQLAELLRKREEMPWEEFVEKFKAKAGEVAFALSDMVFRENNIFYPTLKALLSEGEWKAIKMQEDEIGYYKVKPPEWDPGEDVKPLHPWEINPELNVEQLLTLPKEVQQALRGQPLEFDKTQLKREEDIDLGTGYLNIEELKAIFEALPVDVTFIDKDDRVRFFSPGERIFTRTPSVLGRPVQLCHPPKSVYVVNKILKAFKEGRKKEATFWLRLREKYVYIKYVPLFNEKGEYIGTLEMTMDIAPYKKIEGEKRLLDWRDEGHITITTDPNSSSVDKLAAALEHHHHHH	not failed
MSLDSDVIVDRRRMRRKLTFWRVAAVLVAIVAVVAIGAMVSPAGRGALTSTGSIARIKIEGLIRSNDERVQALDRLGKSSYSAVIVHINSPGGTTAGSEELHDALARLKAKKPMVVVVEGLAASGGYIAALASEHIVAQQTSLVGSIGVLFQYPNVSELLKTVGVKVEEVKSSPLKAAPNGFEPTSPEARAAIEALVKDSYAWFRGMVQQSRKMTDDQLNVVADGRVFTGRQAVGLKLIDELGDERTAIAWLEKAKNVKAGLPVRDYKLAPQFGDLTFLRAAASVAFDAAGLGVIARRVEQTGAMQSVERLGLDGMLALWAPSAGQ	failed
MSLDYTYADDSLTLHTDMYQINMMQTYWELGRADLHAVFECYFREMPFNHGYAIFAGLERLVNYLENLTFTESDIAYLREVEEYPEDFLTYLANFEFKCTVRSALEGDLVFNNEPLIQIEGPLAQCQLVETALLNMVNFQTLIATKAARIKSVIGDDPLLEFGTRRAQELDAAIWGTRAAYIGGADATSNVRAGKIFGIPVSGTHAHSLVQSYGNDYEAFMAYAKTHRDCVFLVDTYDTLKAGVPSAIRVAREMGDKINFLGVRIDSGDMAYISKRVREQLDEAGFTEAKIYASNDLDENTILNLKMQKSKIDVWGVGTKLITAYDQPALGAVFKLVSIEGEDGQMKDTIKLSSNAEKVTTPGKKQVWRITRKSDKKSEGDYVTLWNEDPRQEEEIYMFHPVHTFINKYVRDFEARPVLQDIFVEGKRVYELPTLDEIKQYAKENLDSLWEEYKRDLNPQKYPVDLSTDCWNHKMNLLEKVRKDVKHLTETVNKEAEGHHHHHH	not failed
MSLEAIRIGEINSYSQIPAFTLPYRNGWQLAVEQINAAGGLLGGRPLEVISRDDGGDPGKAVTAAQELLTRHGVHALAGTFLSHVGLAVSDFARQRKVLFMASEPLTDALTWEKGNRYTYRLRPSTYMQAAMLAAEAAKLPITRWATIAPNYEYGQSAVARFKELLLAARPEVTFVAEQWPALYKLDAGPTVQALQQAEPEGLFNVLFGADLPKFVREGRVRGLFAGRQVVSMLTGEPEYLNPLKDEAPEGWIVTGYPWYDIDTAPHRAFVEAYRARWKEDPFVGSLVGYNTLTAMAVAFEKAGGTESETLVETLKDMAFSTPMGPLSFRASDHQSTMGAWVGRTALRDGKGVMVDWRYVDGGSVLPPPEVVSAWRPAGEGHHHHHH	not failed

From a protein production outcome set (Wang et al. 2014)
